B1: CALCOCO1 (protein, UniProt Q9P1Z2 1-691, looked up)
Calcium-binding and …: MEESPLSRAPSRGGVNFLNVARTYIPNTKVECHYTLPPGTMPSASDWIGIFKVEAACVRDYHTFVWSSVPESTTDGSPIHTSVQFQASYLPKPGAQLYQFRYVNRQGQVCGQSPPFQFREPRPMDELVTLEEADGGSDILLVVPKATVLQNQLDESQQERNDLMQLKLQLEGQVTELRSRVQELERALATARQEHTELMEQYKGISRSHGEITEERDILSRQQGDHVARILELEDDIQTISEKVLTKEVELDRLRDTVKALTREQEKLLGQLKEVQADKEQSEAELQVAQQENHHLNLDLKEAKSWQEEQSAQAQRLKDKVAQMKDTLGQAQQRVAELEPLKEQLRGAQELAASSQQKATLLGEELASAAAARDRTIAELHRSRLEVAEVNGRLAELGLHLKEEKCQWSKERAGLLQSVEAEKDKILKLSAEILRLEKAVQEERTQNQVFKTELAREKDSSLVQLSESKRELTELRSALRVLQKEKEQLQEEKQELLEYMRKLEARLEKVADEKWNEDATTEDEEAAVGLSCPAALTDSEDESPEDMRLPPYGLCERGDPGSSPAGPREASPLVVISQPAPISPHLSGPAEDSSSDSEAEDEKSVLMAAVQSGGEEANLLLPELGSAFYDMASGFTVGTLSETSTGGPATPTWKECPICKERFPAESDKDALEDHMDGHFFFSTQDPFTFE
B2: ZFP144 (protein, UniProt P35227 1-344, looked up)
Polycomb group RING finger …: MHRTTRIKITELNPHLMCALCGGYFIDATTIVECLHSFCKTCIVRYLETNKYCPMCDVQVHKTRPLLSIRSDKTLQDIVYKLVPGLFKDEMKRRRDFYAAYPLTEVPNGSNEDRGEVLEQEKGALSDDEIVSLSIEFYEGARDRDEKKGPLENGDGDKEKTGVRFLRCPAAMTVMHLAKFLRNKMDVPSKYKVEVLYEDEPLKEYYTLMDIAYIYPWRRNGPLPLKYRVQPACKRLTLATVPTPSEGTNTSGASECESVSDKAPSPATLPATSSSLPSPATPSHGSPSSHGPPATHPTSPTPPSTASGATTAANGGSLNCLQTPSSTSRGRKMTVNGAPVPPLT
B3: ZEB2 (protein, UniProt O60315 1-1214, looked up)
Zinc finger E-box-binding …: MKQPIMADGPRCKRRKQANPRRKNVVNYDNVVDTGSETDEEDKLHIAEDDGIANPLDQETSPASVPNHESSPHVSQALLPREEEEDEIREGGVEHPWHNNEILQASVDGPEEMKEDYDTMGPEATIQTAINNGTVKNANCTSDFEEYFAKRKLEERDGHAVSIEEYLQRSDTAIIYPEAPEELSRLGTPEANGQEENDLPPGTPDAFAQLLTCPYCDRGYKRLTSLKEHIKYRHEKNEENFSCPLCSYTFAYRTQLERHMVTHKPGTDQHQMLTQGAGNRKFKCTECGKAFKYKHHLKEHLRIHSGEKPYECPNCKKRFSHSGSYSSHISSKKCIGLISVNGRMRNNIKTGSSPNSVSSSPTNSAITQLRNKLENGKPLSMSEQTGLLKIKTEPLDFNDYKVLMATHGFSGTSPFMNGGLGATSPLGVHPSAQSPMQHLGVGMEAPLLGFPTMNSNLSEVQKVLQIVDNTVSRQKMDCKAEEISKLKGYHMKDPCSQPEEQGVTSPNIPPVGLPVVSHNGATKSIIDYTLEKVNEAKACLQSLTTDSRRQISNIKKEKLRTLIDLVTDDKMIENHNISTPFSCQFCKESFPGPIPLHQHERYLCKMNEEIKAVLQPHENIVPNKAGVFVDNKALLLSSVLSEKGMTSPINPYKDHMSVLKAYYAMNMEPNSDELLKISIAVGLPQEFVKEWFEQRKVYQYSNSRSPSLERSSKPLAPNSNPPTKDSLLPRSPVKPMDSITSPSIAELHNSVTNCDPPLRLTKPSHFTNIKPVEKLDHSRSNTPSPLNLSSTSSKNSHSSSYTPNSFSSEELQAEPLDLSLPKQMKEPKSIIATKNKTKASSISLDHNSVSSSSENSDEPLNLTFIKKEFSNSNNLDNKSTNPVFSMNPFSAKPLYTALPPQSAFPPATFMPPVQTSIPGLRPYPGLDQMSFLPHMAYTYPTGAATFADMQQRRKYQRKQGFQGELLDGAQDYMSGLDDMTDSDSCLSRKKIKKTESGMYACDLCDKTFQKSSSLLRHKYEHTGKRPHQCQICKKAFKHKHHLIEHSRLHSGEKPYQCDKCGKRFSHSGSYSQHMNHRYSYCKREAEEREAAEREAREKGHLEPTELLMNRAYLQSITPQGYSDSEERESMPRDGESEKEHEKEGEDGYGKLGRQDGDEEFEEEEEESENKSMDTDPETIRDEEETGDHSMDDSSEDGKMETKSDHEEDNMEDGM
B4: ZFAT (protein, UniProt Q9P243 1-1243, looked up)
Zinc finger protein ZFAT: METRAAENTAIFMCKCCNLFSPNQSELLSHVSEKHMEEGVNVDEIIIPLRPLSTPEPPNSSKTGDEFLVMKRKRGRPKGSTKKSSTEEELAENIVSPTEDSPLAPEEGNSLPPSSLECSKCCRKFSNTRQLRKHICIIVLNLGEEEGEAGNESDLELEKKCKEDDREKASKRPRSQKTEKVQKISGKEARQLSGAKKPIISVVLTAHEAIPGATKIVPVEAGPPETGATNSETTSADLVPRRGYQEYAIQQTPYEQPMKSSRLGPTQLKIFTCEYCNKVFKFKHSLQAHLRIHTNEKPYKCPQCSYASAIKANLNVHLRKHTGEKFACDYCSFTCLSKGHLKVHIERVHKKIKQHCRFCKKKYSDVKNLIKHIRDAHDPQDKKVKEALDELCLMTREGKRQLLYDCHICERKFKNELDRDRHMLVHGDKWPFACELCGHGATKYQALELHVRKHPFVYVCAVCRKKFVSSIRLRTHIKEVHGAAQEALVFTSSINQSFCLLEPGGDIQQEALGDQLQLVEEEFALQGVNALKEEACPGDTQLEEGRKEPEAPGEMPAPAVHLASPQAESTALPPCELETTVVSSSDLHSQEVVSDDFLLKNDTSSAEAHAAPEKPPDMQHRSSVQTQGEVITLLLSKAQSAGSDQESHGAQSPLGEGQNMAVLSAGDPDPSRCLRSNPAEASDLLPPVAGGGDTITHQPDSCKAAPEHRSGITAFMKVLNSLQKKQMNTSLCERIRKVYGDLECEYCGKLFWYQVHFDMHVRTHTREHLYYCSQCHYSSITKNCLKRHVIQKHSNILLKCPTDGCDYSTPDKYKLQAHLKVHTALDKRSYSCPVCEKSFSEDRLIKSHIKTNHPEVSMSTISEVLGRRVQLKGLIGKRAMKCPYCDFYFMKNGSDLQRHIWAHEGVKPFKCSLCEYATRSKSNLKAHMNRHSTEKTHLCDMCGKKFKSKGTLKSHKLLHTADGKQFKCTVCDYTAAQKPQLLRHMEQHVSFKPFRCAHCHYSCNISGSLKRHYNRKHPNEEYANVGTGELAAEVLIQQGGLKCPVCSFVYGTKWEFNRHLKNKHGLKVVEIDGDPKWETATEAPEEPSTQYLHITEAEEDVQGTQAAVAALQDLRYTSESGDRLDPTAVNILQQIIELGAETHDATALASVVAMAPGTVTVVKQVTEEEPSSNHTVMIQETVQQASVELAEQHHLVVSSDDVEGIETVTVYTQGGEASEFIVYVQEAMQPVEEQAVEQPAQEL
B5: ZFP296 (protein, UniProt Q8WUU4 1-475, looked up)
Zinc finger protein 296: MSRRKAGSAPRRVEPAPAANPDDEMEMQDLVIELKPEPDAQPQQAPRLGPFSPKEVSSAGRFGGEPHHSPGPMPAGAALLALGPRNPWTLWTPLTPNYPDRQPWTDKHPDLLTCGRCLQTFPLEAITAFMDHKKLGCQLFRGPSRGQGSEREELKALSCLRCGKQFTVAWKLLRHAQWDHGLSIYQTESEAPEAPLLGLAEVAAAVSAVVGPAAEAKSPRASGSGLTRRSPTCPVCKKTLSSFSNLKVHMRSHTGERPYACDQCPYACAQSSKLNRHKKTHRQVPPQSPLMADTSQEQASAAPPEPAVHAAAPTSTLPCSGGEGAGAAATAGVQEPGAPGSGAQAGPGGDTWGAITTEQRTDPANSQKASPKKMPKSGGKSRGPGGSCEFCGKHFTNSSNLTVHRRSHTGERPYTCEFCNYACAQSSKLNRHRRMHGMTPGSTRFECPHCHVPFGLRATLDKHLRQKHPEAAGEA
B6: ZFP36L1 (protein, UniProt P23950 1-338, looked up)
mRNA decay activator protein …: MTTTLVSATIFDLSEVLCKGNKMLNYSTPSAGGCLLDRKAVGTPAGGGFPRRHSVTLPSSKFHQNQLLSSLKGEPAPSLSSRDSRFRDRSFSEGGERLLPTQKQPGSGQVNSSRYKTELCRPFEENGACKYGDKCQFAHGIHELRSLTRHPKYKTELCRTFHTIGFCPYGPRCHFIHNAEERRALAGGRDLSADRPRLQHSFSFAGFPSAAATAAATGLLDSPTSITPPPILSADDLLGSPTLPDGTNNPFAFSSQELASLFAPSMGLPGGGSPTTFLFRPMSESPHMFDSPPSPQDSLSDHEGYLSSSSSSHSGSDSPTLDNSRRLPIFSRLSISDD

System: HEK293FT cells transfected with TF library
Assay: Screening of TF condensates based on fluorescent puncta
Type: cell-based
Details: Figure 1B numerical data; TF library screen, one value per transcriptional factor
Method in brief: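 Each TF construct was introduced into HEK293FT cells using PEI at 4.8 μg/ml; glucose deprivation versus normal medium lasted 12 h. Automated confocal-style imaging of tagged TF staining, 50 fields per well, gave the puncta data.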

Row | Molecule | Z score of condensed fraction
1 | B1 | 0.2225
2 | B2 | 0.0768
3 | B3 | -0.2398
4 | B4 | -0.7456
5 | B5 | 0.8818
6 | B6 | 0.2477

From publication PMC11574045, “A cofactor-induced repressive type of transcription factor condensation can be induced by synthetic peptides to suppress tumorigenesis” (The EMBO Journal, 2024)
